Experimental data as given in patent US20150056133A1 (Boehringer Ingelheim, published 2015).

T1: human CX3CR1 (human, UniProt P49238 1-355)
T1 construct: Presented on BA/F3-hCX3CR1, CHO-hCX3CR1 or HEK 293-hCX3CR1 cells, depending on the assay; also called hCX3CR1
T1 sequence (looked up): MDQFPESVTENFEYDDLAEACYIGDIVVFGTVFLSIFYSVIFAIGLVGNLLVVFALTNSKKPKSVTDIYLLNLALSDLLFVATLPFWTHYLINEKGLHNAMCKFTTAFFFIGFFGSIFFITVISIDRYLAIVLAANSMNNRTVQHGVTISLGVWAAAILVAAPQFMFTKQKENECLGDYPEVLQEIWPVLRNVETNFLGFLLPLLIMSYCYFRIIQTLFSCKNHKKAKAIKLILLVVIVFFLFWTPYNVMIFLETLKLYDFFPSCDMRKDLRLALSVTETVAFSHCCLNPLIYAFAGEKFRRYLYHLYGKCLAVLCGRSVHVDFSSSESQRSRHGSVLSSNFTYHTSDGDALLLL

T2: mouse CX3CR1 (mouse, UniProt Q9Z0D9 1-354)
T2 construct: whole, on cells
T2 sequence (looked up): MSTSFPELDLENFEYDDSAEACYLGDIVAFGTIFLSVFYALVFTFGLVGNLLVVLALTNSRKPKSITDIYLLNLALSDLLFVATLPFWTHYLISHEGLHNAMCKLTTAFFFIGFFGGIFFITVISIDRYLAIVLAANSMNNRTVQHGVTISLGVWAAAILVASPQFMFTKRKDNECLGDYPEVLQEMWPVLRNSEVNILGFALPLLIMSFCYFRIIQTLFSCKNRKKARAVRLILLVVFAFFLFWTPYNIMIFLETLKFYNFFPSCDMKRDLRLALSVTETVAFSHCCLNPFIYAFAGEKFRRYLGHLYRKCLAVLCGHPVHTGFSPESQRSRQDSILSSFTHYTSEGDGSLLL


What was measured:
[1] = target: T1, human CX3CR1; assay: competition FACS against labeled fractalkine, HEK 293-hCX3CR1 cells
[2] = target: T3, human CCR5 (human, UniProt P51681 1-352); assay: FACS binding on CHO cells expressing human CCR5, anti-cmyc detection
T3 construct: whole, on cells
T3 sequence (P51681 whole entry): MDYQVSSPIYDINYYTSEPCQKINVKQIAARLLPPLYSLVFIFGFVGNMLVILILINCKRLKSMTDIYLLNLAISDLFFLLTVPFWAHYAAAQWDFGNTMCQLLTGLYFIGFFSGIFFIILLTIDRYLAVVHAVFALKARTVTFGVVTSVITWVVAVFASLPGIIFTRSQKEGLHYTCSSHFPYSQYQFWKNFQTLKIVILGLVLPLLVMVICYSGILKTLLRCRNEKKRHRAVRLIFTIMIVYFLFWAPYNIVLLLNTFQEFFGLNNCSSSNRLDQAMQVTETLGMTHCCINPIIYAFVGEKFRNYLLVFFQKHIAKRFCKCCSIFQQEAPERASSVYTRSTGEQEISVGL
Description: (§1) Specificity for the hCX3CR1 receptor was evaluated by performing a FACS binding experiment on CHO-K1 parental cells or CHO cells expressing human CCR2, human CCR5 or mouse CX3CR1. The VHHs were incubated with the respective cell lines for 30 minutes at 4° C. followed by three wash steps and subsequently incubated with the detection reagents. As detection, a mouse anti-cmyc antibody (Serotec, MCA2200) followed by a goat anti-mouse antibody coupled to PE (Jackson 115-116-071) was used, each incubation was for 30 minutes at 4° C. and was followed by three wash steps. For each cell line a quality control with receptor-specific antibody was included. In addition, the highest concentration of each VHH was also incubated with CHO cells expressing hCX3CR1 as a positive control. No binding to mouse CX3CR1, human CCR2 or human CCR5 could be observed.

[3] = target: T2, mouse CX3CR1; assay: FACS binding on CHO cells expressing mouse CX3CR1, anti-cmyc detection
Description: as §1

[4] = target: T4, human CCR2 (human, UniProt P41597 1-374); assay: FACS binding on CHO cells expressing human CCR2, anti-cmyc detection
T4 construct: whole, on cells
T4 sequence (P41597 whole entry): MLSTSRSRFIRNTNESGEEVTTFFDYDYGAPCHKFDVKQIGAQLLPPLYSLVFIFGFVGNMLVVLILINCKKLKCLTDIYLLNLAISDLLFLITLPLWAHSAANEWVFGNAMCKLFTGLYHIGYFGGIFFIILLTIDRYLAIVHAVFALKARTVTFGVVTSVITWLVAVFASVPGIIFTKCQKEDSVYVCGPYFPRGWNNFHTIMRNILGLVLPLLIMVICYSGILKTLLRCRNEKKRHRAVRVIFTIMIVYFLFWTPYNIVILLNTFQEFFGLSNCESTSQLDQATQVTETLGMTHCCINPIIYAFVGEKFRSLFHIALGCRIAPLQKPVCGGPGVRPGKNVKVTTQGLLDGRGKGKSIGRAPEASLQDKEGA
Description: as §1

[5] = target: T1, human CX3CR1; assay: competition FACS against labeled fractalkine, BA/F3-hCX3CR1 cells
[6] = target: T1, human CX3CR1; assay: competition FACS against labeled fractalkine, CHO-hCX3CR1 cells
Description: Periplasmic extracts were screened in a human CX3CR1/human fractalkine FACS competition assay to assess the ability of the expressed VHHs to block the binding of the unique CX3CR1 ligand to the receptor. Human CX3CR1 was presented on CHO cells. As a detection reagent fractalkine (R&D Systems, Minneapolis, Minn., USA) labeled with Alexa Fluor 647 (A647-Fractalkine) at a degree of labeling of 1 was used. In brief, 50 μl of periplasmic extract was added to 6 nM labeled fractalkine (50 μl) and 2E5 CHO-hCX3CR1 cells. After one hour incubation at 4° C., cells were washed three times before analysis on a FACS Array (Becton Dickinson). First a gate was set on the intact cells as determined from the scatter profile. Next, dead cells were gated out by their fluorescence profile from the PI stain (Sigma, St Louis, US). The fluorescence profile from the Alexa Fluor 647 label was determined for each sample and used for the calculation of blocking capacity. As controls, conditions were taken along where there was no VHH present in the periplasmic extract or a known irrelevant VHH and samples were included with excess cold fractalkine. For each sample the percentage block was determined using the control samples to determine the assay window. […]

Row | % Block [1] [%] | IC50 [1] [nM] | binding result [2] | binding result [3] | binding result [4] | IC50 [5] [nM] | IC50 [6] [nM] | Binder
1 | 102 | 0.3 | no binding | no binding | no binding | – | – | CX3CR1BII318 (VHH, Bivalent VHH (single polypeptide chain)) EVQLVESGGGSVQAGESLRLSCAASGSIFSSNAMAWYRQAPGKRRDLVAAINSVGVTKYADSVKGRFTISRDNAKNTVYLQMNSLKPEDTAVYYCTSDPRRGWDTRYWGQGTQVTVSSGGGGSGGGGSGGGGSGGGGSGGGGSGGGGSGGGGSEVQLVESGGGSVQAGESLRLSCAASGSIFSSNAMAWYRQAPGKRRDLVAAINSVGVTKYADSVKGRFTISRDNAKNTVYLQMNSLKPEDTAVYYCTSDPRRGWDTRYWGQGTQVTVSSAAAEQKLISEEDLNGAAHHHHHH
2 | 102 | 2.5 | no binding | no binding | no binding | – | – | CX3CR1BII66B02 (VHH, Expressed in E. coli TG1 as c-myc, His6-tagged protein) VHH: EVQLVESGGGSVQAGESLRLSCAASGSIFSSNAMAWYRQAPGKRRDLVAAINSVGVTKYADSVKGRFTISRDNAKNTVYLQMNSLKPEDTAVYYCTSDPRRGWDTRYWGQGTQVTVSS
3 | – | – | no binding | no binding | no binding | 2.8 | – | CX3CR1BII18E06 (VHH, Expressed in E. coli TG1 as c-myc, His6-tagged protein) VHH: KVQLVESGGGLVQPGGSLRLSCATSGTIFSNNAMGWYRQAPGKKRDLVASISSSGSTNYADSVKGRFTVSRDNDKNTGYLQMNSLKPEDTGVYYCTLDARRGWNTAYWGQGAQVTVSS
4 | 94 | 5.3 | no binding | no binding | no binding | – | – | CX3CR1BII316 (VHH, Expressed in E. coli TG1 as c-myc, His6-tagged protein) VHH: EVQLVESGGGSVQAGESLRLSCAASGSIFSSNAMAWYRQAPPGKQRDLVALINSVGITKYADSVKGRFTISSDNAKNTVYLEMNSLKPEDTAVYYCTSDGRRGWDTRYWGQGTQVTVSS
5 | – | – | no binding | no binding | no binding | 8.1 | – | CX3CR1BII315 (VHH, Expressed in E. coli TG1 as c-myc, His6-tagged protein) VHH: EVQLVESGGGLVQAGGSLRLSCVASGRTFSSYAMGWFRQAPGKERAFVAGISGSASRKYYADSVKGRFTVSRDNARNTVYLQMNSLKPEDTAVYYCAASNSYPKVQFDYYGQGTQVTVSS
6 | – | – | no binding | no binding | no binding | – | 3.4 | CX3CR1BII317 (VHH, Bivalent VHH (single polypeptide chain)) EVQLVESGGGLVQAGGSLRLSCVASGRTFSSYAMGWFRQAPGKERAFVAGISGSASRKYYADSVKGRFTVSRDNARNTVYLQMNSLKPEDTAVYYCAASNSYPKVQFDYYGQGTLVTVSSGGGGSGGGGSGGGGSGGGGSGGGGSGGGGSGGGGSEVQLVESGGGLVQAGGSLRLSCVASGRTFSSYAMGWFRQAPGKERAFVAGISGSASRKYYADSVKGRFTVSRDNARNTVYLQMNSLKPEDTAVYYCAASNSYPKVQFDYYGQGTLVTVSSAAAEQKLISEEDLNGAAHHHHHH
